Data as given in patent US20250388702A1 (Dana-Farber, published 2025).

T1: Human HHLA2-mIgG2a fusion protein (human; mouse, UniProt Q9UM44 23-344, limits assumed)
T1 construct: also called HHLA2-Ig; HHLA2-mouse IgG2a; not shown: mutated at IgG2a L235E, E318A, K320A, K322A
T1 sequence: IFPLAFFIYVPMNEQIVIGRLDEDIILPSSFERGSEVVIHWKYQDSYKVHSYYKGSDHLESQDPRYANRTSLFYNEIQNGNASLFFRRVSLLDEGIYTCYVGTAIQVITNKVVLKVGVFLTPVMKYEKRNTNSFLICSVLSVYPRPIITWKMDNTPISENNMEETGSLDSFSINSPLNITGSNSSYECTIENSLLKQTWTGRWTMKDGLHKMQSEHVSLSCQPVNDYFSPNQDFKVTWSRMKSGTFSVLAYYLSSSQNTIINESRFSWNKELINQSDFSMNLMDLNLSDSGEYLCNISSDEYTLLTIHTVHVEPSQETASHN

B1: KIR2DS2 (receptor, UniProt P43631 22-304, looked up)
chain: HEGVHRKPSLLAHPGPLVKSEETVILQCWSDVRFEHFLLHREGKYKDTLHLIGEHHDGVSKANFSIGPMMQDLAGTYRCYGSVTHSPYQLSAPSDPLDIVITGLYEKPSLSAQPGPTVLAGESVTLSCSSRSSYDMYHLSREGEAHERRFSAGPKVNGTFQADFPLGPATHGGTYRCFGSFRDSPYEWSNSSDPLLVSVTGNPSNSWPSPTEPSSKTGNPRHLHVLIGTSVVKIPFTILLFFLLHRWCSNKKNAAVMDQEPAGNRTVNSEDSDEQDHQEVSYA
notes: whole, on cells
B2: KIR3DL3 mAb 574.2.2F11.2.7.4 human IgG4 (S228P) (antibody, V domains shown)
VH: DVQLVESGGGLVQPGGSRKLSCAASGFTFSYFGMHWVRRAPEKGLEWVAFISSDSTTIYYTDTVKGRFTISRDNPKNTLFLQMTSLRSEDTAIYYCARFYDGAMDYWGQGTSVTVST
VL: DIVMTQSQKFMSTSVGDRVSITCKASQSVRTAVAWYQQKPGQSPKVLIYLASNRHTGVPDRFTGSGSGTDFTLTISNVQSEDLADYFCLQHWNYPLTFGAGTKLELKR
notes: Chimeric: mouse 2F11 variable domains on human IgG4 (S228P) and human kappa (Km3); Signal peptide placeholder left out; also called LP KIR3DL3 mAb (TP-31851); KIR3DL3 mAb 2F11 human IgG4
B3: KIR3DL3 mAb 574.2.1D12.1.6 (antibody, IgG2a, V domains shown)
VH: QVQLQQSGAELVRPGTSVKVSCKASGYAFNNYLIEWVKQRPGQGLEWIGVINPGSGGTNDNEKFRGKATLTADTSSSTAYMQLTSLTSDDSAVYFCARGNYYGTRDWYFDVWGAGTTVTVSS
VL: QIVLTQSPAIMSASLGARVTMTCTASSSVSSSSLHWYQQKPGSSPKLWIYSISSLASGVPARFSGSGSGTSYSLTISSLEAEDAATYYCHQYHRSPPTFGGGTKLEIK
notes: Mouse hybridoma antibody, IgG2a; only variable domains given; also called AVS-3705
B4: PD-1 EH13.2A11.17.1 human IgG4 (S228P) (antibody, V domains shown)
VH: EVKLVESGGGLVQPGGSLKLSCAASGFTFSSFTLSWVRQTPEKRLEWVAYISYGGADTYYPDTVKGRFTIFRDNAKNTLYLQMSSLKSEDTARYYCARHGPYGKGDYYAMDYWGQGTSVTVSS
VL: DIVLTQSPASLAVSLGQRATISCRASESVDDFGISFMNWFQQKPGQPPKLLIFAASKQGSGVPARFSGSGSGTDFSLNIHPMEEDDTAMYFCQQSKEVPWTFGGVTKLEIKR
notes: Chimeric: mouse EH13 variable domains on human IgG4 (S228P) and human kappa (Km3); The printed word SignalPeptide_ is a placeholder and is left out; also called LP PD-1 mAb (TP-31850); PD-1 mAb EH13 human IgG4
B5: PD-1 mAb EH13.2A11.17.1 (antibody, V domains shown)
VH: B4 VH
VL: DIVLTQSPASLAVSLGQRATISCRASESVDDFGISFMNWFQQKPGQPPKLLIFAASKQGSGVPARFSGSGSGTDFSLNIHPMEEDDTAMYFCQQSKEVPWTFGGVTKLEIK
notes: Parental mouse hybridoma antibody; also called parental control hybridoma

Assays:
[1] = target: T1, Human HHLA2-mIgG2a fusion protein; experiment: cell microarray on transfected HEK293 cells, HHLA2-mIgG2a probe, AF647 anti-mouse IgG detection
Description: A library of ˜5500 full length cDNA clones covering more than 3,500 different plasma membrane proteins was arrayed in duplicate across 13 microarray slides (“slide sets”). Human HEK293 cells were grown above the cDNA clones and reverse-transfected. An expression vector (pIRES-hEGFR-IRES-ZsGreen1) was spotted in quadruplicate on every slide and was used to ensure that a minimal threshold of transfection efficiency had been achieved or exceeded on every slide.
Two replicate slides were screened for each of the 13 slide sets. Fluorescent images were analyzed and quantitated (for transfection efficiency) using ImageQuant software (GE). A protein ‘hit’ was defined as duplicate spots showing a raised signal compared to background levels. This was achieved by visual inspection using the images gridded on the ImageQuant software.

[2] = target: T2, Human KIR3DL3, Sino Biological Cat#: 16055-H08H (human, UniProt Q8N743 26-322); experiment: BLI (Octet RED96), antibody captured on the sensor, antigen in solution, 1:1 model
T2 construct: Bought soluble antigen; also called KIR3DL3 (Octet antigen)
Description: (§1) Binding experiments were performed on Octat Red af 25″° C. The human antibodies were loaded onto Anti-higG Fe Capture biosensors and the mouse antibodies were loaded onto Anti-migG Fe Capture biosensors both for 300 seconds. The ligand loaded sensors were dipped into a 3-fold series dilution (starting at 300 nad) of the antigens (PD-1 and KIR3DL3) for 240 seconds followed by dissociation for 400 seconds. Kinetic constanta were calculated using a monovalent (1:1) binding model Antigen: Haman PD1, Sino Biological Cat #: HPLC-10377-HOSH.

[3] = target: T3, KIR2DS5 (UniProt Q14953 22-304, limits assumed); experiment: HEK293 cell microarray
T3 construct: whole, on cells
Description: (§2) Replicate microarray slides expressing a complete KIR family cDNA panel were fixed and blocked with buffer containing PBS/0.5% BSA and incubated for 1 hour at room temperature with individual KIR3DL3 mAb hybridoma supernatants at 1:5, 1:25 and 1:250 dilutions in PBS/0.1% BSA. Cell arrays were washed with PBS and incubated for 1 hour at room temperature in PBS/0.1% BSA containing AF647-conjugated goat anti-mouse IgG (H+L) (Life Technologies, A21235). Slides were washed with PBS, dried, and imaged for ZsGreen1 and AF647 fluorescence.
as §2, with “In Table 4, replicate” for “Replicate”, “the” for “a complete”, “panel (as in FIG. 1A, FIG. 2B, and FIG. 2C)” for “panel”

[4] = target: T4, KIR2DS1 (UniProt Q14954 22-304, limits assumed); experiment: HEK293 cell microarray
T4 construct: whole, on cells
Description: as §2
as §2, with “In Table 4, replicate” for “Replicate”, “the” for “a complete”, “panel (as in FIG. 1A, FIG. 2B, and FIG. 2C)” for “panel”

[5] = target: T5, KIR2DL2 (UniProt P43627 22-348, limits assumed); experiment: HEK293 cell microarray
T5 construct: whole, on cells
Description: as §2
as §2, with “In Table 4, replicate” for “Replicate”, “the” for “a complete”, “panel (as in FIG. 1A, FIG. 2B, and FIG. 2C)” for “panel”

[6] = target: T6, KIR2DL1 (UniProt P43626 22-348, limits assumed); experiment: HEK293 cell microarray
T6 construct: whole, on cells
Description: as §2
as §2, with “In Table 4, replicate” for “Replicate”, “the” for “a complete”, “panel (as in FIG. 1A, FIG. 2B, and FIG. 2C)” for “panel”

[7] = target: T7, KIR2DS3 (UniProt Q14952 22-304, limits assumed); experiment: HEK293 cell microarray
T7 construct: whole, on cells
Description: as §2
as §2, with “In Table 4, replicate” for “Replicate”, “the” for “a complete”, “panel (as in FIG. 1A, FIG. 2B, and FIG. 2C)” for “panel”

[8] = target: T8, KIR2DL4 (UniProt Q99706 22-377, limits assumed); experiment: HEK293 cell microarray
T8 construct: whole, on cells
Description: as §2
as §2, with “In Table 4, replicate” for “Replicate”, “the” for “a complete”, “panel (as in FIG. 1A, FIG. 2B, and FIG. 2C)” for “panel”

[9] = target: T9, KIR3DS1 (UniProt Q14943 22-382, limits assumed); experiment: HEK293 cell microarray
T9 construct: whole, on cells
Description: as §2
as §2, with “In Table 4, replicate” for “Replicate”, “the” for “a complete”, “panel (as in FIG. 1A, FIG. 2B, and FIG. 2C)” for “panel”

[10] = target: T10, KIR3DL1 (UniProt P43629 22-444, limits assumed); experiment: HEK293 cell microarray
T10 construct: whole, on cells
Description: as §2
as §2, with “In Table 4, replicate” for “Replicate”, “the” for “a complete”, “panel (as in FIG. 1A, FIG. 2B, and FIG. 2C)” for “panel”

[11] = target: B1; experiment: HEK293 cell microarray
Description: as §2
as §2, with “In Table 4, replicate” for “Replicate”, “the” for “a complete”, “panel (as in FIG. 1A, FIG. 2B, and FIG. 2C)” for “panel”

[12] = target: T11, KIR2DL3 (UniProt P43628 22-341, limits assumed); experiment: HEK293 cell microarray
T11 construct: whole, on cells
Description: as §2
as §2, with “In Table 4, replicate” for “Replicate”, “the” for “a complete”, “panel (as in FIG. 1A, FIG. 2B, and FIG. 2C)” for “panel”

[13] = target: T12, KIR3DL2 (UniProt P43630 22-455, limits assumed); experiment: HEK293 cell microarray
T12 construct: whole, on cells
Description: as §2
as §2, with “In Table 4, replicate” for “Replicate”, “the” for “a complete”, “panel (as in FIG. 1A, FIG. 2B, and FIG. 2C)” for “panel”

[14] = target: T13, Human PD1, Sino Biological Cat #: HPLC-10377-H08H (human, UniProt Q15116 25-167); experiment: BLI (Octet RED96), antibody captured on the sensor, antigen in solution, 1:1 model
T13 construct: Bought; also called PD-1 (Octet antigen)
Description: as §1

T13 sequence (Q15116 25-167 limits assumed): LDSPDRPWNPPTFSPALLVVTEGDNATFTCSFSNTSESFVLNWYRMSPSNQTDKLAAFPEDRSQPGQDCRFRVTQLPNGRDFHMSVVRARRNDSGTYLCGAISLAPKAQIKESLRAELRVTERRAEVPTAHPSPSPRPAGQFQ
T2 sequence (Q8N743 other isoform, or with tags, fused parts or gaps H08H H08H limits assumed): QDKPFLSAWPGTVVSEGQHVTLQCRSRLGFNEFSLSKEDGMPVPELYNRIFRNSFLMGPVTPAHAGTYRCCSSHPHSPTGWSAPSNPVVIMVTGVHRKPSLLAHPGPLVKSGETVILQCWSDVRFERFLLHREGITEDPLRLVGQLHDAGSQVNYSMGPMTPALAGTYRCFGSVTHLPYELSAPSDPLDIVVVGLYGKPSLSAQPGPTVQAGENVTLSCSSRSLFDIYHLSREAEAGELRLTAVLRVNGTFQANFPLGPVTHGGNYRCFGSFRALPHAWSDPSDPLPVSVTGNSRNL
T10 sequence (P43629 22-444 limits assumed): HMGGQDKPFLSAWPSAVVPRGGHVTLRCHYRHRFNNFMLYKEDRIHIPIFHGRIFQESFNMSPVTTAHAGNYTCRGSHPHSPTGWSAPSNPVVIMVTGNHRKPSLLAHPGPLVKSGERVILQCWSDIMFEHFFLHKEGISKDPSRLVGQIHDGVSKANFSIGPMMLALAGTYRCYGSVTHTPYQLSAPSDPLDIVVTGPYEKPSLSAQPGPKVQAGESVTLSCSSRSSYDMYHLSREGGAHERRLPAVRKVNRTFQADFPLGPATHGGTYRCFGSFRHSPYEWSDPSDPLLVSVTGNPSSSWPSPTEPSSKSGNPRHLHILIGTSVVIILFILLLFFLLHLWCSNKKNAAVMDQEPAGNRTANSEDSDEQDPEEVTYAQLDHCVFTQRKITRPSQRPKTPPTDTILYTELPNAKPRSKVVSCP
T4 sequence (Q14954 22-304 limits assumed): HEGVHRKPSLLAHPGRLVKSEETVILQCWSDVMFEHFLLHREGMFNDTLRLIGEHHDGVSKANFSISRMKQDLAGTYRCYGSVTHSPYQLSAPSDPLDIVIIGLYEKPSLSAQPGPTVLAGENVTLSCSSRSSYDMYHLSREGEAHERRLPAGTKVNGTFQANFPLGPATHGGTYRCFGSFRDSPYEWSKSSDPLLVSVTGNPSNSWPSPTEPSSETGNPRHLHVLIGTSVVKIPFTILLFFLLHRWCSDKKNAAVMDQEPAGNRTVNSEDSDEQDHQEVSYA
T11 sequence (P43628 22-341 limits assumed): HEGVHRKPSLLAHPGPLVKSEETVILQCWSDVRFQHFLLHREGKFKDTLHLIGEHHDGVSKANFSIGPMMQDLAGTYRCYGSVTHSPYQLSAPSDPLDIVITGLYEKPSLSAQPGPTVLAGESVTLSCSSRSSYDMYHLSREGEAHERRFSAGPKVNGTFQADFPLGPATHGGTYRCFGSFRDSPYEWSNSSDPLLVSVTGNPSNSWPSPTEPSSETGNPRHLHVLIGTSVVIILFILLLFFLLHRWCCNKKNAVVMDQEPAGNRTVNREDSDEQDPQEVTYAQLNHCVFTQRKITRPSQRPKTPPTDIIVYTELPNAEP
T8 sequence (Q99706 22-377 limits assumed): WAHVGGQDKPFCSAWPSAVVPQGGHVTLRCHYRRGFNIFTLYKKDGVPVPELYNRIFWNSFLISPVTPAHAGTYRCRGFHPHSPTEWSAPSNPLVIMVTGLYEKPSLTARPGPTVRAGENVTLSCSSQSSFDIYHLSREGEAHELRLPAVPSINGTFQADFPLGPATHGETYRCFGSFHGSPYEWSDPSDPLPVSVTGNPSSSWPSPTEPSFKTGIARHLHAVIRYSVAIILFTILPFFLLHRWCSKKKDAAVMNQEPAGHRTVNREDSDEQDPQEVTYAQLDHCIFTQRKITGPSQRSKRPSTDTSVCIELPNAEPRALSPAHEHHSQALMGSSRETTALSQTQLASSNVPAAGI
T5 sequence (P43627 22-348 limits assumed): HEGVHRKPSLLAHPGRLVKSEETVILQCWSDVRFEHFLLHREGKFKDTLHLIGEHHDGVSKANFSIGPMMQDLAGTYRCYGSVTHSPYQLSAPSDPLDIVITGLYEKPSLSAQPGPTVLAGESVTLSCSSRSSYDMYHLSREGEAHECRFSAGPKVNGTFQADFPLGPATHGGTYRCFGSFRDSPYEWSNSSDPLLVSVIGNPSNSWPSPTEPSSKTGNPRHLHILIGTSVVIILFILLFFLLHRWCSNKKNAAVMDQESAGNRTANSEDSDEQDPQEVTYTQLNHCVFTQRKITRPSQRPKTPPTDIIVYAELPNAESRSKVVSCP
T6 sequence (P43626 22-348 limits assumed): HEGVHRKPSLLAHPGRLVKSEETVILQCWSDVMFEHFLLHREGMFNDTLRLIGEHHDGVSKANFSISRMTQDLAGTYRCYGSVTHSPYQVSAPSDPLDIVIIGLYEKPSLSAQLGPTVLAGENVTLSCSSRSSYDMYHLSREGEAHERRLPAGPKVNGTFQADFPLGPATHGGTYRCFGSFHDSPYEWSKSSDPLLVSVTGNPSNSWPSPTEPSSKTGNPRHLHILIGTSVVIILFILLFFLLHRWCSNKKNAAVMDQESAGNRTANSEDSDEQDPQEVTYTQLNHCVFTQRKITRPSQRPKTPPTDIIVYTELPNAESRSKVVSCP
T9 sequence (Q14943 22-382 limits assumed): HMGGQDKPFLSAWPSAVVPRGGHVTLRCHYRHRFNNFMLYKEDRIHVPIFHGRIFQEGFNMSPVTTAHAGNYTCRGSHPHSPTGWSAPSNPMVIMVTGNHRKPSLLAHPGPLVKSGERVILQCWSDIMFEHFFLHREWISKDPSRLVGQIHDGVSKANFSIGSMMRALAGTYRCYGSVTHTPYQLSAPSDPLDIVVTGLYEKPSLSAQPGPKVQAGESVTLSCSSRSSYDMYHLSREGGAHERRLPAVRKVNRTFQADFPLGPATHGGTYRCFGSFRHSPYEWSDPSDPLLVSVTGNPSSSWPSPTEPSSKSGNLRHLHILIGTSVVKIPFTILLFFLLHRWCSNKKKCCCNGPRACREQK
T12 sequence (P43630 22-455 limits assumed): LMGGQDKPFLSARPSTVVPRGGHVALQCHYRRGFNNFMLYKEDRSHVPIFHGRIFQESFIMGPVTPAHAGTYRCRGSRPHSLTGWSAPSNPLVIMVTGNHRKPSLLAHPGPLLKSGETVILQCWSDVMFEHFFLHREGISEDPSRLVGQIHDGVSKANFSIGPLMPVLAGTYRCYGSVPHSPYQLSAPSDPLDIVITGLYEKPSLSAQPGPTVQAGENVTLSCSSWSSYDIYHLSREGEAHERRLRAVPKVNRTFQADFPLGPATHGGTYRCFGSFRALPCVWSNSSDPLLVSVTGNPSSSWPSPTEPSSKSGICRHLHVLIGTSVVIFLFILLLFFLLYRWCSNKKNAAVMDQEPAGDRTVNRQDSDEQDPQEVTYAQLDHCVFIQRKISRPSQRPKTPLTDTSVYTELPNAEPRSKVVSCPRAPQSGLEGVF

Does B1 bind [1]?
Result: no binding (tested: 20 ug/ml)

Which Kd [2] does the source give for B2 here?
Its Kd is 0.289 nM.

What about the koff [2] of the same binder?
Its koff is 7.19e-05 s⁻¹.

What about the kon [2] of the same binder?
Its kon is 248000 M⁻¹ s⁻¹.

Does B3 bind [3]?
Result: no binding (tested: supernatant 1:5, 1:25, 1:250)

Does B3 bind [4]?
Result: no binding (tested: supernatant 1:5, 1:25, 1:250)

Does B3 bind [5]?
Result: no binding (tested: supernatant 1:5, 1:25, 1:250)

Does B3 bind [6]?
Result: no binding (tested: supernatant 1:5, 1:25, 1:250)

Does B3 bind [7]?
Result: no binding (tested: supernatant 1:5, 1:25, 1:250)

Does B3 bind [8]?
Result: no binding (tested: supernatant 1:5, 1:25, 1:250)

Does B3 bind [9]?
Result: no binding (tested: supernatant 1:5, 1:25, 1:250)

Does B3 bind [10]?
Result: no binding (tested: supernatant 1:5, 1:25, 1:250)

Does B3 bind [11]?
Result: no binding (tested: supernatant 1:5, 1:25, 1:250)

Does B3 bind [12]?
Result: no binding (tested: supernatant 1:5, 1:25, 1:250)

Does B3 bind [13]?
Result: no binding (tested: supernatant 1:5, 1:25, 1:250)

Which Kd [14] does the source give for B4 here?
Its Kd is 6.88 nM.

What about the koff [14] of the same binder?
Its koff is 0.00137 s⁻¹.

What about the kon [14] of the same binder?
The kon was 199000 M⁻¹ s⁻¹.

How did the Kd [14] turn out when B5 was run?
Its Kd is 7.1 nM.

What about the koff [14] of the same binder?
Its koff is 0.00154 s⁻¹.

What about the kon [14] of the same binder?
Its kon is 216000 M⁻¹ s⁻¹.
